Test results reported in the supplement of paper PMC10567573.

B1: SNX8 (parent)
chain: VVLKLFLSFSGSDVQNKLKESAQC

Variants of: B1
Assay: protein stability index of a GFP-peptide fusion (GPS, HEK-293T) (PSI 1-6); higher = more stable
Conditions: c terminus: a fixed tail appended
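Further: lentivirally expressed fusions sorted by FACS into six bins by GFP to DsRed ratio, PSI derived from sequencing read proportions per bin multiplied by bin number.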

Point of comparison: VVLKLFLSFSGSDVQNWLKESAQC, protein stability index 4.7. Against it:
- VVLKLFLSFSGDDVQNKLKESAQC — lower, 3.29
- VVLKLFLSFSGQDVQNKLKESAQC — lower, 3.23
- VVLKLFLSFSGWDVQNKLKESAQC — lower, 3.39
- VVLKLFLSFSGPDVQNKLKESAQC — lower, 3.58
- HVLKLFLSFSGSDVQNKLKESAQC — lower, 1.6
- QVLKLFLSFSGSDVQNKLKESAQC — lower, 4.24
- FVLKLFLSFSGSDVQNKLKESAQC — lower, 2.81
- YVLKLFLSFSGSDVQNKLKESAQC — lower, 2.69
- NVLKLFLSFSGSDVQNKLKESAQC — lower, 1.36
- TVLKLFLSFSGSDVQNKLKESAQC — lower, 2.48
- IVLKLFLSFSGSDVQNKLKESAQC — lower, 3.61
- WVLKLFLSFSGSDVQNKLKESAQC — lower, 1.04
- SVLKLFLSFSGSDVQNKLKESAQC — lower, 3.54
- VVLKLFLSFSGSDVQNKLKFSAQC — lower, 3.18
- VVLKLFLSFSGSDVQNKLKLSAQC — lower, 1.89
- VVLKLFLSFSGSDVQNKLKYSAQC — lower, 3.73
- VVLKLFLSFSGSDVQNKLKASAQC — lower, 2.89
- VVLKLFLSFSGSDVQNKLKCSAQC — lower, 3.61
- VVLKLFLSFSGSDVQNKLKMSAQC — lower, 2.13
- VVLKLFLSFSGSDVQNKLKSSAQC — lower, 3.97
- VVLKLFLSFSGSDVQNKLKDSAQC — lower, 3.55
- VVLKLFLSFSGSDVQNTLKESAQC — lower, 3.29
- VVLKLFLSFSGSDVQNLLKESAQC — lower, 3.46
- VVLKLFLSFSGSDVQNYLKESAQC — lower, 3.54
- VVLKLFLSFSGSDVQNALKESAQC — lower, 1.72
- VVLKLDLSFSGSDVQNKLKESAQC — lower, 1.17
- VVLKLILSFSGSDVQNKLKESAQC — lower, 2.18
- VVLKLKLSFSGSDVQNKLKESAQC — lower, 3.48
- VVLKLELSFSGSDVQNKLKESAQC — lower, 1.31
- VVLKLNLSFSGSDVQNKLKESAQC — lower, 3.24
- VVLKLSLSFSGSDVQNKLKESAQC — lower, 3.13
- VVLQLFLSFSGSDVQNKLKESAQC — lower, 2.43
- VVLNLFLSFSGSDVQNKLKESAQC — lower, 2.76
- VVLELFLSFSGSDVQNKLKESAQC — lower, 4.58
- VVLFLFLSFSGSDVQNKLKESAQC — lower, 2.27
- VVLKEFLSFSGSDVQNKLKESAQC — lower, 1.79
- VVLKRFLSFSGSDVQNKLKESAQC — lower, 1.92
- VVLKPFLSFSGSDVQNKLKESAQC — lower, 1.83
- VVLKDFLSFSGSDVQNKLKESAQC — lower, 2.41
- VVLKAFLSFSGSDVQNKLKESAQC — lower, 2.93
- VVLKSFLSFSGSDVQNKLKESAQC — lower, 1.1
- VVLKFFLSFSGSDVQNKLKESAQC — lower, 3.22
- VVLKYFLSFSGSDVQNKLKESAQC — lower, 1.69
- VVLKHFLSFSGSDVQNKLKESAQC — lower, 2.57
- VVLKCFLSFSGSDVQNKLKESAQC — lower, 2.91
- VVLKKFLSFSGSDVQNKLKESAQC — lower, 2.59
- VVLKQFLSFSGSDVQNKLKESAQC — lower, 2.61
- VVLKLFLPFSGSDVQNKLKESAQC — higher, 5.05
- VVLKLFLLFSGSDVQNKLKESAQC — lower, 2.45
- VVLKLFLMFSGSDVQNKLKESAQC — lower, 4.24
- VVLKLFLAFSGSDVQNKLKESAQC — lower, 1.77
- VVLKLFLRFSGSDVQNKLKESAQC — lower, 1.92
- VVLKLFLGFSGSDVQNKLKESAQC — lower, 1.91
- VVLKLFLSFTGSDVQNKLKESAQC — lower, 4.41
- VVLKLFLSFAGSDVQNKLKESAQC — lower, 1.79
- VVLKLFLSFWGSDVQNKLKESAQC — lower, 3.92
- VVLKLFLSFMGSDVQNKLKESAQC — lower, 1.38
- VVLKLFLSFLGSDVQNKLKESAQC — lower, 2.45
- VVLKLFLSFQGSDVQNKLKESAQC — lower, 2.18
- VVLKLFLSFPGSDVQNKLKESAQC — lower, 1.78
- VVLKLFLSFVGSDVQNKLKESAQC — lower, 3.99
- VVLKLFLSFKGSDVQNKLKESAQC — lower, 2.22
- VVLKLFLSFYGSDVQNKLKESAQC — lower, 2.26
- VVLKLFLSFSGSDVQNKRKESAQC — lower, 1.5
- VVLKLFLSFSGSDVQNKTKESAQC — lower, 2.13
- VVLKLFLSFSGSDVQNKIKESAQC — lower, 2.58
- VVLKLFLSFSGSDVQNKQKESAQC — lower, 4.56
- VVLKLFLSFSGSDVQNKAKESAQC — lower, 2.7
- VVLKLFLSFSGSDVQNKCKESAQC — lower, 3.48
- VVLKLFLSFSGSDVQNKMKESAQC — lower, 4.11
- VVLKLFLSFSGSDVQNKFKESAQC — lower, 2.86
- VVLKLFLSFSGSDVQNKWKESAQC — lower, 1.93
- VVLKLFLSFSGSDVQNKLRESAQC — lower, 2.25
- VVLKLFLSFSGSDVQNKLGESAQC — lower, 3.41
- VVLKLFLSFSGSDVQNKLFESAQC — lower, 2.79
- VVLKLFLSFSGSDVQNKLMESAQC — lower, 2.37
- VVLKLFLSFSGSDVQNKLAESAQC — higher, 4.92
- VVLKLFLSFSGSDVQNKLIESAQC — lower, 2.23
- VVLKLFLSFSGSDVFNKLKESAQC — lower, 3.49
- VVLKLFLSFSGSDVYNKLKESAQC — lower, 3.96
- VVLKLFLSFSGSDVMNKLKESAQC — lower, 4.13
- VVLKLFLSFSGSDVDNKLKESAQC — lower, 1.8
- VVLKLFLSFSGSDVNNKLKESAQC — lower, 2.9
- VVLKLFLSFSGSDVTNKLKESAQC — lower, 3.35
- VWLKLFLSFSGSDVQNKLKESAQC — lower, 3.59
- VCLKLFLSFSGSDVQNKLKESAQC — lower, 3.14
- VPLKLFLSFSGSDVQNKLKESAQC — lower, 2.19
- VELKLFLSFSGSDVQNKLKESAQC — lower, 1.39
- VMLKLFLSFSGSDVQNKLKESAQC — lower, 2.57
- VALKLFLSFSGSDVQNKLKESAQC — lower, 3.41
- VSLKLFLSFSGSDVQNKLKESAQC — lower, 2.79
- VYLKLFLSFSGSDVQNKLKESAQC — lower, 2.24
- VNLKLFLSFSGSDVQNKLKESAQC — lower, 1.11
